Reference: publication doi:10.1101/2025.11.17.688911, “Structure and mechanism of microtubule stabilization and motor regulation by MAP9” (bioRxiv, 2025)

Columns and labels:
[1] = target: T1, surface-immobilized biotinylated microtubules (pig, UniProt Q2XVP4 1-451; Q767L7 1-444, biotin (site not stated) | biotin (site not stated)); test: cell-based or functional assay
[2] = target: T1, surface-immobilized biotinylated …; test: TIRF microscopy, fluorescence intensity of GFP-tagged MAP on microtubules; biotinylated MTs held on a streptavidin-coated coverslip; MAP titrated in BRB80 (80 mM PIPES pH 6.8, 1 mM EGTA, 2 mM MgCl2; about 100 mM salt) with 1 mg/mL casein, 0.5% pluronic acid, no motors or ATP; intensity fit to the Langmuir isotherm; details: both partners purified

B1: full-length (FL) human MAP9 (GFP::Human MAP9::strepII) (natural protein, UniProt Q49MG5 1-647, looked up)
chain: MSDEVFSTTLAYTKSPKVTKRTTFQDELIRAITARSARQRSSEYSDDFDSDEIVSLGDFSDTSADENSVNKKMNDFHISDDEEKNPSKLLFLKTNKSNGNITKDEPVCAIKNEEEMAPDGCEDIVVKSFSESQNKDEEFEKDKIKMKPKPRILSIKSTSSAENNSLDTDDHFKPSPRPRSMLKKKSHMEEKDGLEDKETALSEELELHSAPSSLPTPNGIQLEAEKKAFSENLDPEDSCLTSLASSSLKQILGDSFSPGSEGNASGKDPNEEITENHNSLKSDENKENSFSADHVTTAVEKSKESQVTADDLEEEKAKAELIMDDDRTVDPLLSKSQSILISTSATASSKKTIEDRNIKNKKSTNNRASSASARLMTSEFLKKSSSKRRTPSTTTSSHYLGTLKVLDQKPSQKQSIEPDRADNIRAAVYQEWLEKKNVYLHEMHRIKRIESENLRIQNEQKKAAKREEALASFEAWKAMKEKEAKKIAAKKRLEEKNKKKTEEENAARKGEALQAFEKWKEKKMEYLKEKNRKEREYERAKKQKEEETVAEKKKDNLTAVEKWNEKKEAFFKQKEKEKINEKRKEELKRAEKKDKDKQAINEYEKWLENKEKQERIERKQKKRHSFLESEALPPWSPPSRTVFAKVF
notes: human MAP9, full length; also called FL MAP9; ASAP; source: E. coli Rosetta (DE3), purified (Strep-Tactin XT; for structural studies also heparin HP and Superdex 200); not shown: GFP, N-terminal, kept
- depolymerization rate of MTs after removing free tubulin and GTP, with MAP9 kept in the chamber [1]: 6 fold
- Kd [2]: 61 nM
